# Results from the DeepSol protein solubility set.
# Assay: soluble on expression in E. coli; label from the status in PepcDB or PDB records
row,Sequence,soluble on expression in E. coli
1,KTSDANETEDHLESLICKVGEKSACSLESNLEGLAGVLEADLPNYKSKILRLLCTVARLLPEKLTIYTTLVGLLNARNYNFGGEFVEAMIRQLKESLKANNYNEAVYLVRFLSDLVNCHVIAAPSMVAMFENFVSVTQEEDVPQVRRDWYVYAFLSSLPWVGKELYEKKDAEMDRIFANTESYLKRRQKTHVPMLQVWTADKPHPQEEYLDCLWAQIQKLKKDRWQERHILRPYLAFDSILCEALQHNLPPFTPPPHTEDSVYPMPRVIFRMFDYTDDPEGPVMPGSHSVERFVIEENLHCIIKSHWKERKTCAAQLVSYPGKNKIPLNYHIVEVIFAELFQLPAPPHIDVMYTTLLIELCKLQPGSLPQVLAQATEMLYMRLDTMNTTCVDRFINWFSHHLSNFQFRWSWEDWSDCLSQDPESPKPKFVREVLEKCMRLSYHQRILDIVPPTFSALCPSNPTCIYKYGDESSNSLPGHSVALCLAVAFKSKATNDEIFSILKDVPNPNQDDDDDEGFSFNPLKIEVFVQTLLHLAAKSFSHSFSALAKFHEVFKTLAESDEGKLHVLRVMFEVWRNHPQMIAVLVDKMIRTQIVDCAAVANWIFSSELSRDFTRLFVWEILHSTIRKMNKHVGAQSEQKNLFLVIFQRFIMILTEHLVRCETDGTSVLTPWYKNCIERLQQIFLQHHQIIQQYMVTLENLLFTAELDPHILAVFQQFCALQA,soluble
2,MGSDKIHHHHHHMSDSEKSNSRLFDLDLLRAIVTVADCGSFTTAAARLHSTQSTVSQKVRRLEEMAGHRLLERGNRDVLPTDAGDTLLGYARRLLALNDELAEALSGATVALTVRIGVPDDFAAGRTTERLAAFNRRYPQVKLEVTSGMSRDLSASYDRGELDLVLLKQRRASREALACWPEKTCWVDSARNPCIDLDPLPIVTFPPRGVYRDEMIAALEAVGRRWHISFTSSSLSGLQSAIADGMGIGLLPLRAVSAGHAVLPKNVGLPAVDVFEVALLHRPAADPMVKALARVLSRVLAEDTRSRPAFEK,not soluble
3,MGSSHHHHHHSSGLVPRGSHMLELRLVQGSLLKKVLESIKDLVNDANFDCSSTGFSLQAMDSSHVALVSLLLRSEGFEHYRCDRNLSMGMNLGNMSKMLKCAGNDDIITIKADDGGDTVTFMFESPTQDKIADFEMKLMDIDSEHLGIPDAEYHSIVRMPSNEFSRICKDLSSIGDTVVISVTKEGVKFSTAGDIGTANIVLRQNTTVDKPEDAIVIEMKEPVSLSFALRYMNSFTKATPLSDTVTISLSSELPVVVEYKVAEMGYIRYYLAPKIE,soluble
4,MAHHHHHHMFSSHKTPAKAQRDGYDDEQHLVAAVSEFKKVEASNQSMVDQLHQRLASPFQITAKPCEAGRAAVLQCYQQLQSSSAVTTSNAASSTSPAPPPGARSDSKSAKVAPAEAWLSIPYQQCYETALAYHQCVEDTLAKHLALVAAFEQCGTQQKIAHQSAMKAQDKPQ,soluble
5,MPLGLFSSGKAQVLCDEKIPGGKKKEPKQLSENKCKGVTLKLDHTRVTIEKQIAEGGFAIVYVASDRKNNKFALKRQFTKDNEKQLEACCREHSFLKQCIGHKNIVEFVDSYTNCLGNGIWECMLLTEYHQKNVLQLMNERISQNQYLTNDEILSIFTDLCEAVSFIHNRPQPIIHRDLKVENVLISSHKPPHYVLCDFGSATTQILSVEKYGVEYVKSEVERNTTMCYRSPEMIDFYSGLEIGLKSDIWALGVLLYRLCFFCVPFEESPLAIQSVNYQFPSVPNIPDEIKVLIYMLLDIDVNRRPSIYQTSVLAFEANHRKPLSEEIQNKKCTDAVPSLKSCIQLMRDGSNPRNKRDSSPRNPEAPPIQSSSKMASLSQQVPSISNISMPSGSGTVETSVAPRLRPKATTVVPNVPSISPVPPVGLPHLRLPSKGSTDETDGSQVRKVPIDFHHRQSFSGEEQLKPAAEADSAGPLSCPLIKPTDLGFTDLDKPALPRDRAQTDGKRRLPHESDIIFQQQHRRNVSDTSQISRSAFKPYSSQQTTSKTSSQVVRSVEDMSQRQNGGSGEWNPFLVAPFSNNSISRKDGQESAFMMDDSHFGMVFDEIRRKEIPAELDSETSSIDSRDPFGAAPFDQLTVSTSSSAQPVSLPPATDEDDERQLLSETDEEEKYEIDEKEEIQTKKDETINEEDSEIDEQRMNDRRRYSYENIDGVGDDASSDSRGKTDRDDSEEEEDDDSRRGGDTSHDEDSQNTVGSEDGEGGSRPLLEDDGLEDDDDHELISSFSSSSTNYPPLFIGTSTPHTQNPITNPFLRDELTPKMIITAPLPTAKNNLDDDWDLGDRWTDRRDTVFERPASEHQNVFAPATLPRQATPLVCRFKPDLPTAAPVSIIPSMSNTSFPEAVRDSDTVPCEPIIGTLISVGAPTDPPPPPLPKKPTEASPTQETTATIPVALGKKEKLLKKEKKKEKKDGKKDKLKLEEYREKGSSEPETDGSEAEIWTNDGATTFSNKKKKKSTFGLRSSHPSIVANDLQFSSPMPPVVKKSSKDKKSSLTGKNASFVNTSFQPEDHDDPTDL,soluble
6,MKVELQISETYEEEKLIVQAPQETEKVQKVIEFAENLDQREKIKGKIDDQVYLVEIGKIQRFYIENRKVLAETASQTYSIDLRLYQVLKLLPTNFIQISQSEIINIDSISHLKLTPNGLVEIFLKNESFTYSSRRYLKTIKEKLEL,not soluble
7,MGSDKIHHHHHHMNYKLISIDLAKTVFQVAAFNPDNTIAFNRKINRPALLDMLRQCEPTLVVMEACYSANYWGRTIEKLGHTVKLIPARMVKAMLVGNKNDANDAVAIGETAGRPKVSLLRPKTVEQQDIQSLLRIRERLVENRTANCNQLRGFLAEYGLIVAKTRRQLMLAIPLILEDADNELSTVARGFIQRLYEFQLYLNEQIDQVAQDILALAQAMPQYPLLLTIPGVGPIVASTLLASINEVNDFKNGRQLAAWLGLTPSQYSSGTTNRLGKITKRGNQTLRRLLIHGARTVVNWCDKKDDSLSLWLQRLKQRQHVCKVTVALANKMARMVFVVMSRGQAFDMNKACKLAT,not soluble
8,MGSDKIHHHHHHMKQPLAHRMRPTNIQEIIGQQHLVGEGKILWRMVQANHFQSMILYGPPGTGKTSIASAIAGSTGTPFRLLNAVTHNKKDMEVVVQEAKMHRHLVLILDEVHRLDKAKQDFLLPHLESGLLTLIGATTSNPFHAINSAIRSRCQIFELHALTEDDLLIGLKRALEDKEKGLGEYDVTVTPEALHHFANASGGDMRSAYNALELAVLSSFTTDDKAAEITLEIAEECLQKKSFVHDKGGDAHYDVLSAFQKSVRGSDVNAALHYLARLIEAGDLQSIGRRLLIMAYEDIGLASPQAGPRTLAAIESAERVGFPEARIPLANAVIELCLSPKSNSAYKALDAALHDLRNGQTGDIPSHLKDSHYKGAEALGRGIGYLYPHDHPNGWVQQQYLPDKIKNKQYYKPKMTGKFEQALSTVYERLQSSNKTKNKG,not soluble
9,MTETIKVSESLELHAVAENHVKPLYQLICKNKTWLQQSLNWPQFVQSEEDTRKTVQGNVMLHQRGYAKMFMIFKEDELIGVISFNRIEPLNKTAEIGYWLDESHQGQGIISQALQALIHHYAQSGELRRFVIKCRVDNPQSNQVALRNGFILEGCLKQAEFLNDAYDDVNLYARIIDSQ,soluble
10,MRSFPKAKEAFSEGEKVSFGVHRLHVGDAREVLASFPEASVHLVVTSPPYWTLKRYEDTPGQLGHIEDYEAFLDELDRVWREVFRLLVPGGRLVIVVGDVAVARRRFGRHLVFPLHADIQVRCRKLGFDNLNPIIWHKHTNASLEVEGRGVFLGKPYEPGAIIKTEIEYILMQRKPGGYRKPTQEQREKSRLPKEDFHRFFRQIWDDIPGESTKDHPAPFPLELAERLVRMFSFVGDVVLDPFAGTGTTLIAAARWGRRALGVELVPRYAQLAKERFAREVPGFSLEVLDGATHPRR,soluble
11,SLKDELHKLSYLDANRILEERLTETRYFSLNSNEYKNFQTSNPNFLFAAVIDGHAGGTIADVARKSLGYYLKKELIEIGVNSKRGGCRERAIVSALKKAHLNFDNDLLNQSKDYFLNGTSKYARTGACSLSVLIDERNYYISNIGDSVGLLIKKHFYLPLNRIHNASEFNEKRKLLEEHPNEEDILVCKICTRDYKTVNNNNTYELCKTPFHLLSHHYDNCYVKGRLQPTRSFGDFHLKKKMFAYSVDGTRLFVPEPHSFPYISAEPELRVMKKHPDDQFIVLMSDGVYEFLNHAQVINVIKTYGASPERAAKELINRVLEAAAYSSGMTMKQLLNLDPSIRRNFYDDVSVVVIKLN,not soluble
